This is an account of results in article PMC6017123, “HnRNPA1 Specifically Recognizes the Base of Nucleotide at the Loop of RNA G-Quadruplex”.

Data set [1] deals with T1, hnRNPA1 (UniProt P09651 1-251+304-372, internal_change). The experiment in a line: CD; peak shift 265 to 260 nm on protein addition; Na+; EMSA: 10 mM Tris-HCl pH 7.0, 100 mM NaCl, 0.1 mg/mL BSA, 5 mM DTT, 10% glycerol, 30 min room temperature; 8% native PAGE, 1x TBE + 20 mM NaCl, 80 V, 4 C. The note with it: protein: recombinant; (pET-15b, Ni-NTA); label: 32P (T4 PNK, 5'); intermolecular dimeric parallel G-quadruplex, 2 strands. (In general: In EMSA bound probe runs differently from free probe, usually more slowly.)

Data set [2] addresses T1, hnRNPA1. Briefly: EMSA; 100 mM Na+; EMSA: 10 mM Tris-HCl pH 7.0, 100 mM NaCl, 0.1 mg/mL BSA, 5 mM DTT, 10% glycerol, 30 min room temperature; 8% native PAGE, 1x TBE + 20 mM NaCl, 80 V, 4 C. The note with it: protein: recombinant; (pET-15b, Ni-NTA); label: 32P (T4 PNK, 5'); intermolecular dimeric parallel G-quadruplex, 2 strands.

T1 sequence (P09651 other isoform, or with tags, fused parts or gaps): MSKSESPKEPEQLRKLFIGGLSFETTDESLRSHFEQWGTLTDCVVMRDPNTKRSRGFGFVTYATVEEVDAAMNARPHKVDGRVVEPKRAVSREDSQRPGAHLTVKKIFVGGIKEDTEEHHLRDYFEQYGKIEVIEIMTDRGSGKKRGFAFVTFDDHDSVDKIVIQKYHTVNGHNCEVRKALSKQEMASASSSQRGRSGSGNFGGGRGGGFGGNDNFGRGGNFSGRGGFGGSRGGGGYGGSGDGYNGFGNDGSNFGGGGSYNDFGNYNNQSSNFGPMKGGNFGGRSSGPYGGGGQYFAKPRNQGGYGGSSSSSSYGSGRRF

As to UUAGGGUUAGGG (XNA, 2'-O-methyl at positions 7-9 (UmUmAm)) [2'-O-Me-loop-Gq], the binding result with hnRNPA1 [1] is listed as “binds”.
With UUAGGGUUAGGG (structured_RNA) [Native-RNA-Gq], in the data set with hnRNPA1 [2], the binding result is recorded as “binds”.
